± gives the standard error. Fewer inactive variants are shown than the library holds.
B1: glmS ribozyme (parent)
chain: AUAAAAGCGCCAGAACUACAGAAAUGUAGUUGACGAGGAGGAGGUUUAUCGAAUUUUCGGCGGAUGCCUCCAAA

How the values were obtained:
Settings in all cases: with glucosamine-6-phosphate
glucosamine-6-phosphate [1] = variants of: B1; assay: self-cleavage kobs at 40 uM GlcN6P; higher = faster cleavage; RNA array
Outline: (§1)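 On sequenced MiSeq chips, barcoded ribozyme variants were made in situ by E. coli RNA polymerase and followed at 37 °C through a hybridised Cy3 probe. Glucosamine-6-phosphate was flowed in at 40 μM to 10 mM in HEPES/KCl/Mg(OAc)2 buffer. Exponential fits to normalised per-tile medians gave kobs, and weighted Michaelis–Menten fits gave kcat and KM.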

glucosamine-6-phosphate [2] = variants of: B1; assay: self-cleavage kobs at 160 uM GlcN6P; higher = faster cleavage; RNA array
Outline: as §1

glucosamine-6-phosphate [3] = variants of: B1; assay: self-cleavage kobs at 640 uM GlcN6P; higher = faster cleavage; RNA array
Outline: as §1

glucosamine-6-phosphate [4] = variants of: B1; assay: self-cleavage kobs at 10000 uM GlcN6P; higher = faster cleavage; RNA array
Outline: as §1

glucosamine-6-phosphate [5] = variants of: B1; assay: self-cleavage kobs at 2500 uM GlcN6P; higher = faster cleavage; RNA array
Outline: as §1

Row | Variant | self-cleavage kobs at 40 uM GlcN6P (glucosamine-6-phosphate [1]) | self-cleavage kobs at 160 uM GlcN6P (glucosamine-6-phosphate [2]) | self-cleavage kobs at 640 uM GlcN6P (glucosamine-6-phosphate [3]) | self-cleavage kobs at 10000 uM GlcN6P (glucosamine-6-phosphate [4]) | self-cleavage kobs at 2500 uM GlcN6P (glucosamine-6-phosphate [5])
1 | C16U A36G | < 1e-05 s⁻¹ | < 1e-05 s⁻¹ | < 1e-05 s⁻¹ | – | –
2 | C16U A33U C68A | < 1e-05 s⁻¹ | < 1e-05 s⁻¹ | – | – | –
3 | C16U A33U G51C | < 1e-05 s⁻¹ | – | – | – | –
4 | G29U A52C G66A | < 1e-05 s⁻¹ | – | – | – | –
5 | C16G G35C A36U A42U C50U | < 1e-05 s⁻¹ | – | – | < 1e-05 s⁻¹ | –
6 | C16G U30G C50G | 0.00013 ± 4.8e-05 s⁻¹ | – | 6.59e-05 ± 3.2e-05 s⁻¹ | 7.3e-05 ± 1.9e-05 s⁻¹ | 0.000324 ± 5e-05 s⁻¹
7 | C16U C50A A52C U65C G66U | < 1e-05 s⁻¹ | – | < 1e-05 s⁻¹ | – | –
8 | A23C | 0.00185 ± 0.00044 s⁻¹ | 0.00277 ± 0.00082 s⁻¹ | 0.00459 ± 0.0012 s⁻¹ | 0.0549 ± 0.021 s⁻¹ | 0.0102 ± 0.0033 s⁻¹
9 | C16A G40C | < 1e-05 s⁻¹ | – | 4.46e-05 ± 1.5e-05 s⁻¹ | – | 0.000112 ± 1.8e-05 s⁻¹
10 | G26U U31G G44U C50U | < 1e-05 s⁻¹ | – | – | < 1e-05 s⁻¹ | < 1e-05 s⁻¹
11 | G21C G29A | 6.68e-05 ± 2.4e-05 s⁻¹ | – | – | 0.00366 ± 0.00094 s⁻¹ | –
12 | C16U U55A C67A | 0.000154 ± 5.7e-05 s⁻¹ | – | – | 0.00183 ± 0.00074 s⁻¹ | –
13 | A28G G43C U45A C67G | < 1e-05 s⁻¹ | – | – | – | –
14 | C16G U31C G37C A53G | < 1e-05 s⁻¹ | – | – | – | –
15 | G29A A36G | < 1e-05 s⁻¹ | < 1e-05 s⁻¹ | < 1e-05 s⁻¹ | – | < 1e-05 s⁻¹
16 | G29A G38A A39U | < 1e-05 s⁻¹ | – | < 1e-05 s⁻¹ | < 1e-05 s⁻¹ | –
17 | C16A G38C | < 1e-05 s⁻¹ | < 1e-05 s⁻¹ | < 1e-05 s⁻¹ | < 1e-05 s⁻¹ | –
18 | C16A G29C U56G A64G | 2.81e-05 ± 1.4e-05 s⁻¹ | – | – | 0.00203 ± 0.00038 s⁻¹ | –
19 | G29C A64U | < 1e-05 s⁻¹ | < 1e-05 s⁻¹ | – | – | –
20 | G29A U55G G60C | < 1e-05 s⁻¹ | – | – | – | –
21 | C16G A48C C50A C58U A64U | < 1e-05 s⁻¹ | – | – | < 1e-05 s⁻¹ | –
22 | G29C U47G C68G | 7.83e-05 ± 2.3e-05 s⁻¹ | – | – | 3.71e-05 ± 1.3e-05 s⁻¹ | –
23 | G29C A36G G51C | < 1e-05 s⁻¹ | – | – | – | –
24 | G29U A39U | 0.000106 ± 1e-05 s⁻¹ | 0.000145 ± 2.1e-05 s⁻¹ | 0.000784 ± 0.00013 s⁻¹ | 0.0042 ± 0.00041 s⁻¹ | 0.00196 ± 0.00026 s⁻¹

Row | Variant | self-cleavage kobs at 40 uM GlcN6P (glucosamine-6-phosphate [1]) | self-cleavage kobs at 160 uM GlcN6P (glucosamine-6-phosphate [2]) | self-cleavage kobs at 640 uM GlcN6P (glucosamine-6-phosphate [3]) | self-cleavage kobs at 10000 uM GlcN6P (glucosamine-6-phosphate [4]) | self-cleavage kobs at 2500 uM GlcN6P (glucosamine-6-phosphate [5])
25 | C16G U31A | 5.78e-05 ± 2.1e-05 s⁻¹ | 4.17e-05 ± 1.9e-05 s⁻¹ | 0.000204 ± 8.2e-05 s⁻¹ | 0.00174 ± 0.0006 s⁻¹ | 0.00117 ± 0.00048 s⁻¹
26 | C16U G60U | < 1e-05 s⁻¹ | < 1e-05 s⁻¹ | < 1e-05 s⁻¹ | – | –
27 | C16U C50G | 4.26e-05 ± 1.3e-05 s⁻¹ | 3.28e-05 ± 1.4e-05 s⁻¹ | 4.35e-05 ± 1.3e-05 s⁻¹ | – | –
28 | G29C G41C G44A G60A | < 1e-05 s⁻¹ | – | – | < 1e-05 s⁻¹ | –
29 | C16U U55G | 0.000446 ± 7.1e-05 s⁻¹ | 0.00102 ± 0.00026 s⁻¹ | 0.00467 ± 0.0013 s⁻¹ | 0.0464 ± 0.01 s⁻¹ | 0.00554 ± 0.0013 s⁻¹
30 | C16U U55A | 0.000949 ± 0.00012 s⁻¹ | 0.00192 ± 0.00041 s⁻¹ | 0.00568 ± 0.0014 s⁻¹ | 0.0419 ± 0.0089 s⁻¹ | 0.0131 ± 0.0022 s⁻¹
31 | C16U A53C U54A | 0.000103 ± 2.4e-05 s⁻¹ | – | – | 0.00236 ± 0.00047 s⁻¹ | –
32 | C19A C67A | 0.000243 ± 6.1e-05 s⁻¹ | – | 0.00033 ± 9.6e-05 s⁻¹ | 0.000881 ± 0.00024 s⁻¹ | –
33 | C16G U56A C71U | 0.000174 ± 5.5e-05 s⁻¹ | – | – | – | –
34 | C16G G51C U55A U65A | < 1e-05 s⁻¹ | – | – | < 1e-05 s⁻¹ | < 1e-05 s⁻¹
35 | G29U G62U | < 1e-05 s⁻¹ | < 1e-05 s⁻¹ | < 1e-05 s⁻¹ | < 1e-05 s⁻¹ | < 1e-05 s⁻¹
36 | G29U G62C | < 1e-05 s⁻¹ | – | < 1e-05 s⁻¹ | < 1e-05 s⁻¹ | < 1e-05 s⁻¹
37 | C16G C34G G40C U55A C58U U69A | < 1e-05 s⁻¹ | – | – | < 1e-05 s⁻¹ | –
38 | C16G U49C | < 1e-05 s⁻¹ | < 1e-05 s⁻¹ | – | < 1e-05 s⁻¹ | < 1e-05 s⁻¹
39 | G29C G41U A48G U49C G60C | < 1e-05 s⁻¹ | – | – | < 1e-05 s⁻¹ | –
40 | C16A G37C | < 1e-05 s⁻¹ | – | – | – | –
41 | G29A U69C | 6.51e-05 ± 1.6e-05 s⁻¹ | 7e-05 ± 1.3e-05 s⁻¹ | 0.000122 ± 2.2e-05 s⁻¹ | 0.000486 ± 0.00013 s⁻¹ | 0.000105 ± 1.6e-05 s⁻¹
42 | G29A A33G A36C U45C | < 1e-05 s⁻¹ | – | – | – | –
43 | C16U U31G C50G C70A | 0.000109 ± 2.3e-05 s⁻¹ | – | – | 6.25e-05 ± 1.3e-05 s⁻¹ | –
44 | C16A C50G | 0.000251 ± 0.0001 s⁻¹ | 7.18e-05 ± 1.9e-05 s⁻¹ | 4.7e-05 ± 1.7e-05 s⁻¹ | 7.6e-05 ± 3.6e-05 s⁻¹ | 5.49e-05 ± 1.1e-05 s⁻¹
45 | C16U G32C G40U C58U | < 1e-05 s⁻¹ | – | – | – | –
46 | G29A A48G U49G G62C | < 1e-05 s⁻¹ | < 1e-05 s⁻¹ | – | – | < 1e-05 s⁻¹
47 | C16U U31A A36G | < 1e-05 s⁻¹ | – | – | – | –
48 | C16G G29U | 0.000398 ± 5.9e-05 s⁻¹ | 0.00129 ± 0.00034 s⁻¹ | 0.00183 ± 0.00046 s⁻¹ | 0.0203 ± 0.0044 s⁻¹ | 0.00758 ± 0.0015 s⁻¹
